Results published in patent US20230293638A1 (Eli Lilly, published 2023).
Numbered stars: 1 amine (or outer) side, 2 acyl side, 3 side chain; on linkers, the order of the positions; unused ones are H or OH. Square brackets hold non-standard residues; d marks the D form. Side chains are listed from the residue outwards. Ends that are not written are not given here. * marks the point of attachment. C20 diacid = O=C(O)CCCCCCCCCCCCCCCCCCC(=O)*; γGlu = O=C(O)[C@H](CCC(=O)[*:2])N[*:1]; AEEA = NCCOCCOCC(=O)O; Aib = CC(C)(N)C(=O)O

B1: Peptide 32 (peptide)
peptide: Y[Aib]EGTFTSDYSILLDKIAQ[Aib]K([AEEA-AEEA-γGlu-C20 diacid])FIEYLIEGGPSSGAPPPS-NH2
modifications: N-terminus assumed
SMILES: CC[C@H](C)[C@H](NC(=O)[C@H](CCCCN)NC(=O)[C@H](CC(=O)O)NC(=O)[C@H](CC(C)C)NC(=O)[C@H](CC(C)C)NC(=O)[C@@H](NC(=O)[C@H](CO)NC(=O)[C@H](Cc1ccc(O)cc1)NC(=O)[C@H](CC(=O)O)NC(=O)[C@H](CO)NC(=O)[C@@H](NC(=O)[C@H](Cc1ccccc1)NC(=O)[C@@H](NC(=O)CNC(=O)[C@H](CCC(=O)O)NC(=O)C(C)(C)NC(=O)[C@@H](N)Cc1ccc(O)cc1)[C@@H](C)O)[C@@H](C)O)[C@@H](C)CC)C(=O)N[C@@H](C)C(=O)N[C@@H](CCC(N)=O)C(=O)NC(C)(C)C(=O)N[C@@H](CCCCNC(=O)COCCOCCNC(=O)COCCOCCNC(=O)CC[C@H](NC(=O)CCCCCCCCCCCCCCCCCCC(=O)O)C(=O)O)C(=O)N[C@@H](Cc1ccccc1)C(=O)N[C@H](C(=O)N[C@@H](CCC(=O)O)C(=O)N[C@@H](Cc1ccc(O)cc1)C(=O)N[C@@H](CC(C)C)C(=O)N[C@H](C(=O)N[C@@H](CCC(=O)O)C(=O)NCC(=O)NCC(=O)N1CCC[C@H]1C(=O)N[C@@H](CO)C(=O)N[C@@H](CO)C(=O)NCC(=O)N[C@@H](C)C(=O)N1CCC[C@H]1C(=O)N1CCC[C@H]1C(=O)N1CCC[C@H]1C(=O)N[C@@H](CO)C(N)=O)[C@@H](C)CC)[C@@H](C)CC
B2: Peptide 34 (peptide)
peptide: Y[Aib]EGTFTSDYSILLDKIAQ[Aib]AFIK([AEEA-AEEA-γGlu-C20 diacid])YLIEGGPSSGAPPPS-NH2
modifications: N-terminus assumed
SMILES: CC[C@H](C)[C@H](NC(=O)[C@H](CCCCN)NC(=O)[C@H](CC(=O)O)NC(=O)[C@H](CC(C)C)NC(=O)[C@H](CC(C)C)NC(=O)[C@@H](NC(=O)[C@H](CO)NC(=O)[C@H](Cc1ccc(O)cc1)NC(=O)[C@H](CC(=O)O)NC(=O)[C@H](CO)NC(=O)[C@@H](NC(=O)[C@H](Cc1ccccc1)NC(=O)[C@@H](NC(=O)CNC(=O)[C@H](CCC(=O)O)NC(=O)C(C)(C)NC(=O)[C@@H](N)Cc1ccc(O)cc1)[C@@H](C)O)[C@@H](C)O)[C@@H](C)CC)C(=O)N[C@@H](C)C(=O)N[C@@H](CCC(N)=O)C(=O)NC(C)(C)C(=O)N[C@@H](C)C(=O)N[C@@H](Cc1ccccc1)C(=O)N[C@H](C(=O)N[C@@H](CCCCNC(=O)COCCOCCNC(=O)COCCOCCNC(=O)CC[C@H](NC(=O)CCCCCCCCCCCCCCCCCCC(=O)O)C(=O)O)C(=O)N[C@@H](Cc1ccc(O)cc1)C(=O)N[C@@H](CC(C)C)C(=O)N[C@H](C(=O)N[C@@H](CCC(=O)O)C(=O)NCC(=O)NCC(=O)N1CCC[C@H]1C(=O)N[C@@H](CO)C(=O)N[C@@H](CO)C(=O)NCC(=O)N[C@@H](C)C(=O)N1CCC[C@H]1C(=O)N1CCC[C@H]1C(=O)N1CCC[C@H]1C(=O)N[C@@H](CO)C(N)=O)[C@@H](C)CC)[C@@H](C)CC

Target: human GLP-1 receptor (human, UniProt P43220 24-463)
Experiment: cell-based or functional assay

Binder	hGLPIR cAMP EC50 ratio
Y[Aib]EGTFTSDYSILLDKIAQ[Aib]AFK([AEEA-AEEA-γGlu-C20 diacid])EYLIEGGPSSGAPPPS-NH2 [Peptide 33]	0.000256
B1	0.136
B2	0.0392
